According to the DeepSol protein solubility set:

Assay: soluble on expression in E. coli; label from the status in PepcDB or PDB records

Sequence	soluble on expression in E. coli
EVQLVESGGGLVQPGRSLRLSCAASGFTFDDYAMHWVRQAPGKGLEWVSGISWNSGSIGYADSVKGRFTISRDNAKNSLYLQMNSLRAEDTAVYYCARGRGFHYYYYGMDIWGQGTTVTVSSASTKGPSVFPLAPSSKSTSGGTAALGCLVKDYFPEPVTVSWNSGALTSGVHTFPAVLQSSGLYSLSSVVTVPSSSLGTQTYICNVNHKPSNTKVDKKVEPK	soluble
MSLINEATLAESIRRLRQGERATLAQAMTLVESRHPRHQALSTQLLDAIMPYCGNTLRLGVTGTPGAGKSTFLEAFGMLLIREGLKVAVIAVDPSSPVTGGSILGDKTRMNDLARAEAAFIRPVPSSGHLGGASQRARELMLLCEAAGYDVVIVETVGVGQSETEVARMVDCFISLQIAGGGDDLQGIKKGLMEVADLIVINKDDGDNHTNVAIARHMYESALHILRRKYDEWQPRVLTCSALEKRGIDEIWHAIIDFKTALTASGRLQQVRQQQSVEWLRKQTEEEVLNHLFANEDFDRYYRQTLLAVKNNTLSPRTGLRQLSEFIQTQYFDEGHHHHHH	soluble
MGRLGWVDPESFMQRNHELMDAYSAGKLAMEEFMAFSLEPMAGRTPEEVDHLVGPWVEDVIEPIIYSDACKCIAQHRAKGDRILVISASGVHLVKPIAERLGIDEVLGIELDVQHGVYSGATVGVLTYREGKITRLMEWLDAEGENLEGASFYSDSRNDLPLLLKVDHPNVVNPDPVLLEHAQQAGWPVHTWV	not soluble
MRPLTRLVPLALLLLAGCAGPLPQPDPQMAWVELRSAPANTLLAERLDGERLSDGRYFQVTPGRHVLEVRFQYELYGGSGGGGGGFGEPVQINCYQQVVYDGFEAGRRYRLEVRPQLRRALALLSDERGEVVARSNFQTSRCPPY	not soluble
MRQSGSWMTIWDDRILEIIHEEGNGSPKELEDRDEIRISKSSVSRRLKKLADHDLLQPLANGVYVITEEGEAYLNGEYDAGKERYINRGNSTDEENGADAPDGPGINS	soluble
MVEKEIDYLCSQYGLKPTNLSKFTLKLNFPDPDLKYGFSGEDNSLYLPLYHELNVSSSLPGEMFCMVYIQLILDPDKVNSEYLADFFNNPLGLKIRKGWEARGFVLRPETRNSEEVQESQQTSALNNPALLSGKSGFSGISYPVTGETSSENGDSIYSICQGSDGMTYVLPDSASPVPEILSFPDLDLESLMHSKLYLPDLQVQLEILKIKALTKELISQLNIFECRLSTYPKSMSHIRRKLELIREAVKLANDSDYILELIRRGESKRLEFKSTLRMNLMTGKPDWNIQHAVLKTIVAYLNTDGGILLVGVSNDGEILGIKNDGFPNEDRFLLHFKQLIKQHIGLNYSPMIEYTLVPVNGKEVLEIACKKSDEAVFLKTDKNDEEFYIRTGPSSERLTGSKLIEYVNRRYNGKSDAAALEHHHHHH	soluble
MREKWRKKRMRRLKRKRRAAKK	not soluble
MGSDKIHHHHHHMEFLRNTWYAAGWSQDLAAGAMLGRTMLNEQLVLFRADDGTVSALSDICPHRFAPLHLGKIVDGCRIQCAYHALEFDGTGACVKNPHGKQKIPAAAKLQAYPVVEKHSLIWVWMGEQAAADPSVIPDFSMLDPDSGFQVSRRDWLHMDASYDLVVDNLMDLSHTAFLHDGILGSKYTIKADTSLEQTGETVKVTRLMPNVPVPGFFDLMFNRDGGIVDYWTEIRWNLPGCLMNNTGVTLPGAPRSEGTGVYGMHFLTPETDVSCWYHFAAVRQNPRTWGEPIDTEIKEKISDLRRYAFEEQDQWIIKAQQQTILRAKGNLQPVSLETDIGIERYKRILKAALVAERSGSTMAA	not soluble
MGSDKIHHHHHHMEEVVKRLAEIRAMDARGEGGRLFTYLYETGDPGVKEVSLRAFEMFLDTNALDPTVFKSALFFERELVSFASSLAGGVEGVVGTVTYGGTESIILAAMAAREWYRSLGGSRTPGIVAPQTVHPSVRKAARYLGMRLSIAPVDPGSKRVDIDSLVSLVDDRTAMVVVSAPNYPYGTVDDVRSVAEALSSQRVWLHVDACVGGFILPFMRELGLYSGAFAFDVEGVYSVSMDLHKYGYSPKGASVLLFRDGSLKKHSIFADLRWPGYPFINTTVLSSRSVAPLAAAWAVTNYLGRRGYLELARKAVEARDEIMRGLESIGFRSLAPIESTILSVALDDPADTLRFHANMSRRGWILGLQPGVEGLAPPNIHLTISPIHKLVSPQFLGDARASSSEPLPKELEEAWRLLESRGPLELAGMIGRTQYDQVIIAWILSSIPPDLAEDLARELTVEVYRG	not soluble
MRLALADAGDTVEDANFVEAMADAGILRLYTWVEWVKEMLASCSSLRSGPADSFNDRVFASEMNAGIIKTDQNYEKMMFKEALKTGFFEFQAAKDKYRELATEGMHRELVFRFIEVQTILLTPFCPHLCEHIWTLLGKPDSIMHASWPVAGPVDESLIRSSQYLMEVAHDLRLRLKNYMMPAKGKKTDKQPAQRPSHCTIYVAKNYPAWQHITLTTLRSHFEANNGKLPDNKVIASELGSLPELKKYMKKVMPFVAMIKENMEKKGPRVLDLELEFDEQAVLMENIVYLTNSLELEHIDVKFASEAEDKVREECCPGKPLNVFRTEPGVPVSLINPQPSSGHFSTKIDIRQGDSCESIIRRLTKTDRGIKDLSKVKLMRFDDPLLGPRRVPVLGREHSEKTLISENAVFHVDLVSKKVHLTENGLRMDIGDTMVYLVH	not soluble
MSLGRPAPFKVGALNSITGAGGTYGPGMLEAIKIGIAEVNAAGGAAGRELKLYAEDDQTRPDAAVLAARKLVDIQHVDAMIGIWSSAVQLATLPITNAAGILSFNTCGAPEIRTEDKRDLVFQFYASNAIIGAAFAAIGQRLGYKRAAVLGYNNATMSVQANHFKAAWEKKGNQIVSSAIYEPNQATYRTEVEKAVAAKPDVIVLSSYTPDATILLKEWYQTGYECKFIMPGYSATPALIKALGPDVMRNIVSTANVPASDNQAYKAFVEKFQAVTKSPPEMFAAAAYDMVITLALAIEAAGPDAKPADLSALVRQVSNPPGQKVSSFVQGRDLLRQKAKIDFDGASSSLDFDANGDTVPDFGIYEFDGKAFALKDVVPGATEGHHHHHH	soluble
MKNTTLYTYRDYFVIRGGKPLTGKVKISGAKNAALPIMFATILTEEPCTITNVPDLLDVRNTLLLLRELGAELEFLNNTVFINPSINSFITNQEIIRRMRASVLSLGPLLGRFGRAVVGLPGGCSIGARPIDQHLKFFKEAGADVEVREGYVYVNLKEKRRVHFKFDLVTVTGTENALLYLASVPEESILENIALEPEVMDLIEVLKKMGAHVKVEGRSAYVKGSENLKGFTHSVIPDRIEAGTFMVGAVLTDGEILLENARINHLRAVVEKLKLIGGEVVEENGNLRVFRKESLRACDIETQVYPGFPTDMQAQFMALLSVAKGKSRIKENIFEHRFHHAQELNRLGANITVRGNTAYVEGVERLYGSEVYSTDLRASASLVLAGLVAQGETVVRDVYHLDRGYEKLEEKLKKLGADIERVSEL	soluble
MAHHHHHHSLSLQVTTKTGKESQKKTQTTAKSTITVDIKGAVKHEGVYTLPIDSRINDVIEKAGGFSEKADRKSVNLAQKLQDEAVIYVAAIGENISVIRDSQEGKTSQADKANTKETSVKGKVNLNTATLADLQTISGIGEKKAQDILDYREANGGFKSVDDLKNISGIGDKTFEKLKDLVSVDEG	not soluble
MGSDKIHHHHHHMNNKYKNSYIVKEKELVSLSVYNVGFQSCDSLYQWGPGIRDHYLIHYIISGKGRYTVNGSVHTLTPGDAFLVYPNTEVIYQADAQDPWEYTWVGFTGSDAATILRATDFTKAHPYIHSVSNGNEIKRQLMHIYDARGTEFENALEMTGRLYTTLALFVSAATSKPPQNSANSYVQKGIEYISANYSYPITVEDIASYIGLSRSHLFRSFQSILGVSPKEYLTDFRIKQACYLLKHSSLSITAIAGSIGFDNSLYFSKTFHKIKGLSPKEYRSKYKKAQE	not soluble
LKYMYKIDDDKKYILYCPTWRGNQRKEVTQINLKDLLKYLPENYEIIVKLHPNESHLRTRYNQIDNRIHCYFNELVDIQELYILSECMITDYSSTIFDYIHLNKPVFILQEDEQQYKQSVGFYFDLFEVGDFLKASLNERMLAKQICSTDYINYSKVVHRLMKQDSSKSSEKLMAEILGEPEYPSSSNCKQQIS	not soluble
MGHHHHHHSHNFHYGAGHPMKPHRLALTHSLVLHYGLYKKMIVFKPYQASQHDMCRFHSEDYIDFLQRVSPTNMQGFTKSLNAFNVGDDCPVFPGLFEFCSRYTGASLQGATQLNNKICDIAINWAGGLHHAKKFEASGFCYVNDIVIGILELLKYHPRVLYIDIDIHHGDGVQEAFYLTDRVMTVSFHKYGNYFFPGTGDMYEVGAESGRYYCLNVPLRDGIDDQSYKHLFQPVINQVVDFYQPTCIVLQCGADSLGCDRLGCFNLSIRGHGECVEYVKSFNIPLLVLGGGGYTVRNVARCWTYETSLLVEEAISEELPYSEYFEYFAPDFTLHPDVSTRIENQNSRQYLDQIRQTIFENLKMLNHAPSVQIHDVPADLLTYDRTD	not soluble
MGSDKIHHHHHHMVLPGFFVPVKGWCPLPGVVIFTDVPAVVPATVSAHEAACPAGSPVLPRVSGLPPLRDGSRGRDCPMGASHVWDLPFSPPAGAALPCRRSRSHGLAPAPRVYGMLLVRAWRCSMDRDTVAGLMADALLERRFRHNDGAHPALAALRELAVNQGTDAGRRMVADDPHEVGSPPLSPIDPVELLQHDGALPSLPTVYVELRQRLADPDCSVREAAEVITRDAGLTAWLLRVVNSASYGLSGRVDTVTQAVAVVGMRQLETMVASGMLQSLMRSVPRGLVDMERLWRHSLAVGGAAREIWRLMGRPDPERLFVAGVLHDVGYLAFVMMAPQKAAQLVPRLRASHLPGHLAERELLGFDHAKLGGMLLHKWNMPVPLVMSVLRHHEPESVPSMPEPSVIHLADIVARAMGYGPDAESAVPPLSASAWEASGLTPQHLEAVANAMTAMVDDLGTAVMCTTV	not soluble
MSMPYDNEAKIKQAVILLQKIVNDTSVPRNIRRAATDAIRNLQDLGLSPAVRAANAIGILEDISQDPNMPTHARISIWNVVSILETVKD	not soluble
MAHHHHHHMQTGPFAAVTRVPDHVRNMILNEIASENIWLFDRGRCEAVTVGDMRSSSFSIPMAESPPAVGCELDNNEHLLLYDLMRVRNGQVMFENDHFSRIRQNCILTAPTACDAANVSEDEDLGKLSTYIEGVRSTTRDFIKCNPWENGDVNLKFVTWVLPSQLSDVSTAERRSELLRTLSYAVYYVTSFFPPEDWYEEGTRYAMLYDAQRHTPNAKILQVPLRERAKALQQTTNAFEVLLVSDNRRHYLVPEGSRSNYLIVSGDESLLCSLEEDILVGITLRVARRAAACARLPPLRHRKLVLGDICLAKSIAMLGTSPGVLPIKEIQVFYDEESKQNFLLAMEDYMQDKDEEIQRAVINVRGRILNDDGLLRLESPSCDTLKRLRAAYEAEALL	not soluble
MRTSIATVCLSGTLAEKLRAAADAGFDGVEIFEQDLVVSPHSAEQIRQRAQDLGLTLDLFQPFRDFEGVEEEQFLKNLHRLEEKFKLMNRLGIEMILLCSNVGTATINDDDLFVEQLHRAADLAEKYNVKIAYEALAWGKFVNDFEHAHALVEKVNHKALGTCLDTFHILSRGWETDEVENIPAEKIFFVQLADAPKLSMDILSWSRHHRVFPGEGDFDLVKFMVHLAKTGYDGPISLEIFNDSFRKAEVGRTAIDGLRSLRWLEDQTWHALNAEDRPSALELR	not soluble
